Reference: patent US10400230B2, “Protease variants and polynucleotides encoding same” (NOVOZYMES A/S, priority 2014, dated 2019)

Experiments:
[1] = Determination of binding constants of inhibitor in Tris buffer at pH 8; type: biochemical; conditions: Ki of variant with the mutation relative to variant without the mutation
Protocol: (§1) Purified protease variants are pre-diluted to approximately 0.2 mg/ml in dilution buffer. 40 μl diluted protease is then mixed with 40 μl inhibitor solution (Z-Gly-Ala-NHCH(CH2C6H4pOH)C(OH)(SO3Na)—H, wherein Z is benzyloxycarbonyl) or 40 μl 4-FPBA solution in the well of a 96 well microtiter plate (Nunc F 96-MTP). […] After 10 min mixing of protease and inhibitor at room temperature, 30 μl of the mixture is transferred to a microtiter plate (Nunc U96 PP 0.5 ml) with 270 μl Model B detergent in the wells resulting in inhibitor concentrations of 0-30 μM and 4-FPBA concentrations of 0-6000 μM. Protease, inhibitor and detergent is mixed for 1 hour using magnetic bars for 1 hour at room temperature to reach equilibrium. Then 20 μl is transferred to a microtiter plate (Nunc F 96-MTP). 100 μl substrate solution is added and after 5 sec mixing absorbance at 405 nm is measured every 20 sec for 5 min on a SpectraMax Plus reader. Slope from linear regression of initial increase in absorbance at 405 nm is used for calculation of apparent binding constants.
(§2) It is assumed that protease and inhibitor react according to the equation: E+I ? EI
(§3) Where E is the protease, I is the inhibitor and EI is the protease-inhibitor complex. […] The concentration of enzyme-inhibitor in the detergent solution is then given by:
(§4) where Etot is the total protease concentration ([Etot]=[E]+[EI]), Itot is the total inhibitor concentration ([Itot]=[I]+[EI]), and Ki is the equilibrium binding constant for the reaction. The measured slopes V are given by:
(§5) where V0 is the slope without inhibitor added. To calculate apparent binding constant Ki least square fitting of measured slopes at various inhibitor concentrations to this equation is performed with Ki and V0 as variables.
(§6) Having the Ki for each variant, it is possible to calculate the effect of a single mutation, if data are available for at least two variants that differ only by that mutation. In this case, the relative Ki for the mutation is calculated:
(§7) [formula] A lower Ki is desirable, as a satisfactory inhibition can be obtained at a lower inhibitor concentration, so beneficial mutations have a relative Ki<1.0 The following table show such relative Kimutation. Each row show: • a mutation (column 1: “Mutation”) • a protease variant (relative to SEQ ID NO: 2) that comprise the mutation from column 1 (column 2: “Variant with the mutation”) • another protease variant (relative to SEQ ID NO: 2), that differs from the one in column 2 only by not having the mutation in column 1 (column 3: “Variant without the mutation”) • Relative Kimutation for the mutation in column 1, in the context of the variant in column 3, measured in Model B detergent (column 4: “inhibitor binding in Model B”) • Relative Kimutation for the mutation in column 1, in the context of the variant in column 3, measured in Tris buffer at pH 8 (column 5: “inhibitor binding in Tris buffer pH 8”)

[2] = Determination of binding constants of inhibitor (NNIC) in Model B detergent, Suc-AAPF-pNA read-out; type: biochemical; conditions: Ki of variant with the mutation relative to variant without the mutation; for Inhibitor-binding relative Kimutation, inhibitor binding in Model B: <1.0 beneficial
Protocol: as §1, §2, §3, §4, §5
The Ki for the parent protease and for each variant was calculated as described above
as §6, §7
Ki were calculated as shown in Example 3. The Improvement Factor (IF) or Relative

Inhibitor-binding relative Kimutation, inhibitor binding in Tris buffer pH 8 [1] | Inhibitor-binding relative Kimutation, inhibitor binding in Model B [2] | Inhibitor-binding relative Kimutation, inhibitor binding in Model B (Table 4b) [2] | Molecule
0.91 | 0.93 | – | K146N, S173P, S175P, F180Y: TY145 protease (SEQ ID NO 3) variant with these substitutions (protein, listed as Bacillus sp.) AVPSTQTPWGIKSIYNDQSITKTTGGSGIKVAVLDTGVYTSHLDLAGSAEQCKDFTQSNPLVDGSCTDRQGHGTHVAGTVLAHGGSNGQGVYGVAPQAKLWAYKVLGDNGSGYSDDIAAAIRHVADEASRTGSKVVINMSLGSSANDSLIASAVDYAYGKGVLIVAAAGNSGPGPNTIGYPGGLVNAVAVAALENVQQNGTYRVADFSSRGNPATAGDYIIQERDIEVSAPGASVESTWYTGGYNTISGTSMATPHVAGLAAKIWSANTSLSHSQLRTELQNRAKVYDIKGGIGAGTGDDYASGFGYPRVK
0.16 | 0.23 | – | K146W, S173P, S175P, F180Y: TY145 protease (SEQ ID NO 3) variant with these substitutions (protein, listed as Bacillus sp.) AVPSTQTPWGIKSIYNDQSITKTTGGSGIKVAVLDTGVYTSHLDLAGSAEQCKDFTQSNPLVDGSCTDRQGHGTHVAGTVLAHGGSNGQGVYGVAPQAKLWAYKVLGDNGSGYSDDIAAAIRHVADEASRTGSKVVINMSLGSSAWDSLIASAVDYAYGKGVLIVAAAGNSGPGPNTIGYPGGLVNAVAVAALENVQQNGTYRVADFSSRGNPATAGDYIIQERDIEVSAPGASVESTWYTGGYNTISGTSMATPHVAGLAAKIWSANTSLSHSQLRTELQNRAKVYDIKGGIGAGTGDDYASGFGYPRVK
– | 0.50 | – | S173P, S175P, F180Y, R224S: TY145 protease (SEQ ID NO 3) variant with these substitutions (protein, listed as Bacillus sp.) AVPSTQTPWGIKSIYNDQSITKTTGGSGIKVAVLDTGVYTSHLDLAGSAEQCKDFTQSNPLVDGSCTDRQGHGTHVAGTVLAHGGSNGQGVYGVAPQAKLWAYKVLGDNGSGYSDDIAAAIRHVADEASRTGSKVVINMSLGSSAKDSLIASAVDYAYGKGVLIVAAAGNSGPGPNTIGYPGGLVNAVAVAALENVQQNGTYRVADFSSRGNPATAGDYIIQESDIEVSAPGASVESTWYTGGYNTISGTSMATPHVAGLAAKIWSANTSLSHSQLRTELQNRAKVYDIKGGIGAGTGDDYASGFGYPRVK
– | 0.36 | – | S173P, S175P, F180Y, R224D: TY145 protease (SEQ ID NO 3) variant with these substitutions (protein, listed as Bacillus sp.) AVPSTQTPWGIKSIYNDQSITKTTGGSGIKVAVLDTGVYTSHLDLAGSAEQCKDFTQSNPLVDGSCTDRQGHGTHVAGTVLAHGGSNGQGVYGVAPQAKLWAYKVLGDNGSGYSDDIAAAIRHVADEASRTGSKVVINMSLGSSAKDSLIASAVDYAYGKGVLIVAAAGNSGPGPNTIGYPGGLVNAVAVAALENVQQNGTYRVADFSSRGNPATAGDYIIQEDDIEVSAPGASVESTWYTGGYNTISGTSMATPHVAGLAAKIWSANTSLSHSQLRTELQNRAKVYDIKGGIGAGTGDDYASGFGYPRVK
– | – | 0.17 | S27K, V162T, S173P, G174K, S175P, F180Y, L184F, Q197K, Q198E, T297P: TY145 protease (SEQ ID NO 3) variant with these substitutions (protein, listed as Bacillus sp.) AVPSTQTPWGIKSIYNDQSITKTTGGKGIKVAVLDTGVYTSHLDLAGSAEQCKDFTQSNPLVDGSCTDRQGHGTHVAGTVLAHGGSNGQGVYGVAPQAKLWAYKVLGDNGSGYSDDIAAAIRHVADEASRTGSKVVINMSLGSSAKDSLIASAVDYAYGKGTLIVAAAGNSGPKPNTIGYPGGFVNAVAVAALENVKENGTYRVADFSSRGNPATAGDYIIQERDIEVSAPGASVESTWYTGGYNTISGTSMATPHVAGLAAKIWSANTSLSHSQLRTELQNRAKVYDIKGGIGAGPGDDYASGFGYPRVK

Second part, the molecule before the results:

Molecule | Inhibitor-binding relative Kimutation, inhibitor binding in Tris buffer pH 8 [1] | Inhibitor-binding relative Kimutation, inhibitor binding in Model B [2] | Inhibitor-binding relative Kimutation, inhibitor binding in Model B (Table 4b) [2]
S27K, I121V, S171N, S173P, G174R, S175P, F180Y, Q198E, R224S, T297P: TY145 protease (SEQ ID NO 3) variant with these substitutions (protein, listed as Bacillus sp.) AVPSTQTPWGIKSIYNDQSITKTTGGKGIKVAVLDTGVYTSHLDLAGSAEQCKDFTQSNPLVDGSCTDRQGHGTHVAGTVLAHGGSNGQGVYGVAPQAKLWAYKVLGDNGSGYSDDIAAAVRHVADEASRTGSKVVINMSLGSSAKDSLIASAVDYAYGKGVLIVAAAGNNGPRPNTIGYPGGLVNAVAVAALENVQENGTYRVADFSSRGNPATAGDYIIQESDIEVSAPGASVESTWYTGGYNTISGTSMATPHVAGLAAKIWSANTSLSHSQLRTELQNRAKVYDIKGGIGAGPGDDYASGFGYPRVK | – | 0.56 | –
S27K, S171N, S173P, G174R, S175P, F180Y, Q198E, N199K, R224G, T297P: TY145 protease (SEQ ID NO 3) variant with these substitutions (protein, listed as Bacillus sp.) AVPSTQTPWGIKSIYNDQSITKTTGGKGIKVAVLDTGVYTSHLDLAGSAEQCKDFTQSNPLVDGSCTDRQGHGTHVAGTVLAHGGSNGQGVYGVAPQAKLWAYKVLGDNGSGYSDDIAAAIRHVADEASRTGSKVVINMSLGSSAKDSLIASAVDYAYGKGVLIVAAAGNNGPRPNTIGYPGGLVNAVAVAALENVQEKGTYRVADFSSRGNPATAGDYIIQEGDIEVSAPGASVESTWYTGGYNTISGTSMATPHVAGLAAKIWSANTSLSHSQLRTELQNRAKVYDIKGGIGAGPGDDYASGFGYPRVK | – | 0.74 | –
S173P, S175P, F180Y, R224G: TY145 protease (SEQ ID NO 3) variant with these substitutions (protein, listed as Bacillus sp.) AVPSTQTPWGIKSIYNDQSITKTTGGSGIKVAVLDTGVYTSHLDLAGSAEQCKDFTQSNPLVDGSCTDRQGHGTHVAGTVLAHGGSNGQGVYGVAPQAKLWAYKVLGDNGSGYSDDIAAAIRHVADEASRTGSKVVINMSLGSSAKDSLIASAVDYAYGKGVLIVAAAGNSGPGPNTIGYPGGLVNAVAVAALENVQQNGTYRVADFSSRGNPATAGDYIIQEGDIEVSAPGASVESTWYTGGYNTISGTSMATPHVAGLAAKIWSANTSLSHSQLRTELQNRAKVYDIKGGIGAGTGDDYASGFGYPRVK | – | 0.47 | –
S27K, S171N, S173P, G174R, S175P, F180Y, G182A, L184F, Q198E, N199K, R224G, T297P: TY145 protease (SEQ ID NO 3) variant with these substitutions (protein, listed as Bacillus sp.) AVPSTQTPWGIKSIYNDQSITKTTGGKGIKVAVLDTGVYTSHLDLAGSAEQCKDFTQSNPLVDGSCTDRQGHGTHVAGTVLAHGGSNGQGVYGVAPQAKLWAYKVLGDNGSGYSDDIAAAIRHVADEASRTGSKVVINMSLGSSAKDSLIASAVDYAYGKGVLIVAAAGNNGPRPNTIGYPAGFVNAVAVAALENVQEKGTYRVADFSSRGNPATAGDYIIQEGDIEVSAPGASVESTWYTGGYNTISGTSMATPHVAGLAAKIWSANTSLSHSQLRTELQNRAKVYDIKGGIGAGPGDDYASGFGYPRVK | – | – | 0.69
S27K, S171D, S173P, G174R, S175P, G182A, L184F, Q198E, N199K, R224G, T297P: TY145 protease (SEQ ID NO 3) variant with these substitutions (protein, listed as Bacillus sp.) AVPSTQTPWGIKSIYNDQSITKTTGGKGIKVAVLDTGVYTSHLDLAGSAEQCKDFTQSNPLVDGSCTDRQGHGTHVAGTVLAHGGSNGQGVYGVAPQAKLWAYKVLGDNGSGYSDDIAAAIRHVADEASRTGSKVVINMSLGSSAKDSLIASAVDYAYGKGVLIVAAAGNDGPRPNTIGFPAGFVNAVAVAALENVQEKGTYRVADFSSRGNPATAGDYIIQEGDIEVSAPGASVESTWYTGGYNTISGTSMATPHVAGLAAKIWSANTSLSHSQLRTELQNRAKVYDIKGGIGAGPGDDYASGFGYPRVK | – | – | 0.49
